For 30 substances, Peptide exchange results are on record in patent US11390660B2, “Uterine cancer treatments” (Immatics Biotechnologies GmbH, priority 2016, dated 2022).

This assay addresses HLA-A*02:01 (Homo sapiens, UniProt P04439, D140Y/D185E/D98H/E176V/E277Q/G131W/G231S/I119V/I121R/I166T/I218V/L300P/L318F/N151K/N90K/P208A/P217A/Q86G/Q94H/R138H/R169H/T345S). The assay can be described thus: MHC binding assay: UV-ligand exchange with β2m ELISA. Particulars: peptide exchange yield, binding to HLA-A*02:01. From the text: Candidate peptides for T cell based therapies according to the present invention were further tested for their MHC binding capacity (affinity). The individual peptide-MHC complexes were produced by UV-ligand exchange, where a UV-sensitive peptide is cleaved upon UV-irradiation, and exchanged with the peptide of interest as analyzed. Only peptide candidates that can effectively bind and stabilize the peptide-receptive MHC molecules prevent dissociation of the MHC complexes. To determine the yield of the exchange reaction, an ELISA was performed based on the detection of the light chain (β2m) of stabilized MHC complexes. The assay was performed as generally described in Rodenko et al. (Rodenko et al., 2006).
96 well MAXISorp plates (NUNC) were coated over night with 2 ug/ml streptavidin in PBS at room temperature, washed 4× and blocked for 1 h at 37° C. in 2% BSA containing blocking buffer. Refolded HLA-A*02:01/MLA-001 monomers served as standards, covering the range of 15-500 ng/ml. Peptide-MHC monomers of the UV-exchange reaction were diluted 100 fold in blocking buffer. Samples were incubated for 1 h at 37° C., washed four times, incubated with 2 ug/ml HRP conjugated anti-β2m for 1 h at 37° C., washed again and detected with TMB solution that is stopped with […]. Absorption was measured at 450 nm. Candidate peptides that show a high exchange yield (preferably higher than 50%, most preferred higher than 75%) are generally preferred for a generation and production of antibodies or fragments thereof, and/or T cell receptors or fragments thereof, as they show sufficient avidity to the MHC molecules and prevent dissociation of the MHC complexes.
In general terms: An ELISA detects its analyte on a solid surface through an enzyme-linked reagent.
Regarding “4 (RLDIQGTGQLL; listed as Homo sapiens) [compound 4]”, the Peptide exchange result was “+++ (>50 = +++)”.

With “5 (SLFDEVRQI; listed as Homo sapiens) [compound 5]”, the Peptide exchange result was “++++ (> 75% = ++++)”.

In the case of “8 (SVMELLQGV; listed as Homo sapiens) [compound 8]”, the Peptide exchange entry was “++++ (> 75% = ++++)”.

For the substance “11 (ALDPIIHGL; listed as Homo sapiens) [compound 11]”, the Peptide exchange result is reported as “++++ (> 75% = ++++)”.

“12 (ALAPSEGVQAA; listed as Homo sapiens) [compound 12]”: the Peptide exchange result is “++++ (> 75% = ++++)”.

With “13 (ALQNKVVAL; listed as Homo sapiens) [compound 13]”, the Peptide exchange entry is “+++ (>50 = +++)”.

On to “15 (GLLSVELRV; listed as Homo sapiens) [compound 15]”, for which the Peptide exchange entry is “++++ (> 75% = ++++)”.

On to “16 (KLNSSIQYV; listed as Homo sapiens) [compound 16]”, for which the Peptide exchange entry is given as “+++ (>50 = +++)”.

Turning to “17 (KLWEESTAQV; listed as Homo sapiens) [compound 17]”, the Peptide exchange result is “+++ (>50 = +++)”.

“19 (YLETMNITL; listed as Homo sapiens) [compound 19]”: the Peptide exchange entry is listed as “+++ (>50 = +++)”.

With “21 (VLGPEGQLV; listed as Homo sapiens) [compound 21]”, the Peptide exchange entry is reported as “+++ (>50 = +++)”.

Turning to “22 (VLVSSVLGV; listed as Homo sapiens) [compound 22]”, the Peptide exchange result is given as “+++ (>50 = +++)”.

In the case of “24 (ILDAQTAFV; listed as Homo sapiens) [compound 24]”, the Peptide exchange result is “+++ (>50 = +++)”.

In the case of “25 (ILLELFTHV; listed as Homo sapiens) [compound 25]”, the Peptide exchange result is recorded as “++++ (> 75% = ++++)”.

For “26 (SVLAGVVGV; listed as Homo sapiens) [compound 26]”, the Peptide exchange result was “++++ (> 75% = ++++)”.

Turning to “27 (VLNPETTVV; listed as Homo sapiens) [compound 27]”, the Peptide exchange result is on record as “+++ (>50 = +++)”.

In the case of “28 (GLDEAIRKV; listed as Homo sapiens) [compound 28]”, the Peptide exchange entry was “+++ (>50 = +++)”.

With “29 (IGIGPVLNI; listed as Homo sapiens) [compound 29]”, the Peptide exchange result is “+ (>10% = +)”.

In the case of “30 (TLLDRVAVI; listed as Homo sapiens) [compound 30]”, the Peptide exchange result is “+++ (>50 = +++)”.

With “31 (ALLTAVTNV; listed as Homo sapiens) [compound 31]”, the Peptide exchange entry was “+++ (>50 = +++)”.

For the substance “32 (GLIENTYQL; listed as Homo sapiens) [compound 32]”, the Peptide exchange entry was “+++ (>50 = +++)”.

Take “33 (SMTTNLDLKV; listed as Homo sapiens) [compound 33]”: the Peptide exchange result is reported as “++ (>20% = ++)”.

As to “34 (AIAGRLLGV; listed as Homo sapiens) [compound 34]”, the Peptide exchange entry is “++++ (> 75% = ++++)”.

As for “35 (TLLPTLYEI; listed as Homo sapiens) [compound 35]”, the Peptide exchange result is “+++ (>50 = +++)”.

As for “36 (SLLSDIIAL; listed as Homo sapiens) [compound 36]”, the Peptide exchange entry is “+++ (>50 = +++)”.

With “37 (VLLATVTEL; listed as Homo sapiens) [compound 37]”, the Peptide exchange entry is “+++ (>50 = +++)”.

On to “38 (RILDIDIPLSV; listed as Homo sapiens) [compound 38]”, for which the Peptide exchange entry is given as “+++ (>50 = +++)”.

In the case of “39 (ALDGKIYEL; listed as Homo sapiens) [compound 39]”, the Peptide exchange entry is listed as “+++ (>50 = +++)”.

As for “40 (GLLGGVIMMV; listed as Homo sapiens) [compound 40]”, the Peptide exchange result is “++++ (> 75% = ++++)”.

For the substance “41 (YIDDIFSGV; listed as Homo sapiens) [compound 41]”, the Peptide exchange entry was “++++ (> 75% = ++++)”.
